Assay results taken from PMC9672333.

biological target: Omicron BA.1 spike RBD (UniProt P0DTC2) (SARS-CoV-2) (UniProt P0DTC2); test: microfluidic diffusional sizing (MDS)

For Casirivimab (antibody), which fold reduction of binding affinity relative to wild type RBD is on record?
The fold reduction of binding affinity relative to wild type RBD was > 100 fold.

Which fold reduction of binding affinity relative to wild type RBD does the source give for Cilgavimab Biosimilar (antibody) here?
The fold reduction of binding affinity relative to wild type RBD was > 100 fold.

For Tixagevimab Biosimilar (antibody), which fold reduction of binding affinity relative to wild type RBD is on record?
The fold reduction of binding affinity relative to wild type RBD was > 100 fold.
